This note sets out measurements from patent US20180186853A1 (HANMI PHARM, published 2018).

The labels stand for the following.
B1: glucagon derivative of SEQ ID NO: 40 (peptide)
peptide: Y[Aib]QGTFVSDYSKYLDERRAKDFVQWLMNTC
modifications: bridge 16-20; also: ring between positions 16 and 20, kind not given here
B2: glucagon derivative of SEQ ID NO: 13 (peptide)
peptide: Y[Aib]QGTFTSDYSCYLDSRRAQDFVQWLMNT
B3: glucagon derivative of SEQ ID NO: 43 (peptide)
peptide: Y[Aib]QGTFTSDCSKYLDSRRAQDFVQWLMNT
B4: glucagon derivative of SEQ ID NO: 11 (peptide)
peptide: Y[Aib]QGTFTSDYSKYLDEKCAKEFVQWLMNT
modifications: not fully specified (bridges)
B5: glucagon derivative of SEQ ID NO: 17 (peptide)
peptide: Y[Aib]QGTFTSDYSKYLDCVRAQDFVQWLMRT
B6: glucagon derivative of SEQ ID NO: 26 (peptide)
peptide: W[Aib]QGTFTSDYSKYLDECRAKDFVQWLMNT
modifications: bridge 16-20; also: ring between positions 16 and 20, kind not given here
B7: glucagon derivative of SEQ ID NO: 3 (peptide)
peptide: HSQGTFTSDYSKYLDCERAQDFVQWLMNT
B8: glucagon derivative of SEQ ID NO: 16 (peptide)
peptide: Y[Aib]QGTFTSDYSKYLDCRRAQVFVQWLMRT
B9: glucagon derivative of SEQ ID NO: 36 (peptide)
peptide: Y[Aib]QGTFTSDCSKYLDERRAKEFVQWLMNT
modifications: bridge 16-20; also: ring between positions 16 and 20, kind not given here
B10: glucagon derivative of SEQ ID NO: 12 (peptide)
peptide: Y[Aib]QGTFTSDYSKYLDEKRAKEFVQWLMNTC
modifications: bridge 16-20; also: ring between positions 16 and 20, kind not given here
B11: glucagon derivative of SEQ ID NO: 44 (peptide)
peptide: YXQGTFTSDYSKYLDSRRAQDFVQWLMNTC
modifications: X at position 2 = aminoisobutyric acid (Aib)
B12: glucagon derivative of SEQ ID NO: 25 (peptide)
peptide: Y[Aib]QGTFTSDYSKYLDEKRAKCFVQWLMNT
modifications: bridge 16-20; also: ring between positions 16 and 20, kind not given here
B13: glucagon derivative of SEQ ID NO: 10 (peptide)
peptide: Y[Aib]QGTFTSDYSKYLDSCDADDFVVWLINT
B14: glucagon derivative of SEQ ID NO: 31 (peptide)
peptide: Y[Aib]QGTFTSDYSKYLDCKRAKEFVQWLMNT
modifications: bridge 17-21; also: ring between positions 17 and 21, kind not given here
B15: glucagon derivative of SEQ ID NO: 38 (peptide)
peptide: Y[Aib]QGTFCSDYSKYLDERRAKEFVQWLMNT
modifications: bridge 16-20; also: ring between positions 16 and 20, kind not given here
B16: glucagon derivative of SEQ ID NO: 33 (peptide)
peptide: YXQGTFTSDYSKYLDSRRAQDFVQWLMNT
modifications: X at position 2 = aminoisobutyric acid (Aib)
B17: glucagon derivative of SEQ ID NO: 30 (peptide)
peptide: W[Aib]QGTFTSDYSKCLDERRAKDFVQWLMNT
modifications: bridge 16-20; also: ring between positions 16 and 20, kind not given here
B18: glucagon derivative of SEQ ID NO: 14 (peptide)
peptide: Y[Aib]QGTFTSDYSKYLDCKRAKEFVQWLMNT
modifications: not fully specified (bridges)
B19: glucagon derivative of SEQ ID NO: 32 (peptide)
peptide: SQGTFTSDYSKYLDECRAKEFVQWLMNT
modifications: lactam 15-19
B20: glucagon derivative of SEQ ID NO: 27 (peptide)
peptide: Y[Aib]QGTFVSDYSKYLDECRAKDFVQWLMNT
modifications: bridge 16-20; also: ring between positions 16 and 20, kind not given here
B21: glucagon derivative of SEQ ID NO: 21 (peptide)
peptide: Y[Aib]QGTFTSDYSKYLDEKCAKEFVQWLMNT
modifications: bridge 16-20; also: ring between positions 16 and 20, kind not given here
B22: glucagon derivative of SEQ ID NO: 9 (peptide)
peptide: Y[Aib]QGTFTSDYSKYLDSCDAQDFVVWLINT
B23: glucagon derivative of SEQ ID NO: 23 (peptide)
peptide: Y[Aib]QGTFTSDYSKYCDEKRAKEFVQWLMNT
modifications: bridge 16-20; also: ring between positions 16 and 20, kind not given here
B24: glucagon derivative of SEQ ID NO: 18 (peptide)
peptide: Y[Aib]QGTFTSDYSKYLDSRRACDFRLWLMNT
B25: glucagon derivative of SEQ ID NO: 22 (peptide)
peptide: Y[Aib]QGTFTSDYSKYLDEKRCKEFVQWLMNT
modifications: bridge 16-20; also: ring between positions 16 and 20, kind not given here
B26: glucagon derivative of SEQ ID NO: 19 (peptide)
peptide: Y[Aib]QGTFTSDYSKYLCEKRAKEFVQWLMNT
modifications: bridge 16-20; also: ring between positions 16 and 20, kind not given here
B27: glucagon derivative of SEQ ID NO: 39 (peptide)
peptide: Y[Aib]QGTFVSDCSKYLDERRAKDFVQWLMNT
modifications: bridge 16-20; also: ring between positions 16 and 20, kind not given here
B28: glucagon derivative of SEQ ID NO: 15 (peptide)
peptide: Y[Aib]QGTFTSDYSKYLCEKRAQDFVVWLMNT
B29: glucagon derivative of SEQ ID NO: 20 (peptide)
peptide: Y[Aib]QGTFTSDYSKYLDECRAKEFVQWLMNT
modifications: bridge 16-20; also: ring between positions 16 and 20, kind not given here
B30: glucagon derivative of SEQ ID NO: 35 (peptide)
peptide: Y[Aib]QGTFTSDYSKYCDERRAKEFVQWLMNT
modifications: bridge 16-20; also: ring between positions 16 and 20, kind not given here
B31: glucagon derivative of SEQ ID NO: 42 (peptide)
peptide: Y[Aib]QGTFCSDYSKYLDSRRAQDFVQWLMNT
B32: glucagon derivative of SEQ ID NO: 28 (peptide)
peptide: W[Aib]QGTFVSDYSKYLDECRAKDFVQWLMNT
modifications: bridge 16-20; also: ring between positions 16 and 20, kind not given here
B33: glucagon derivative of SEQ ID NO: 37 (peptide)
peptide: Y[Aib]QGTFTSDYSKYLDERRAKEFVQWLMNTC
modifications: bridge 16-20; also: ring between positions 16 and 20, kind not given here
B34: glucagon derivative of SEQ ID NO: 41 (peptide)
peptide: Y[Aib]QGTFCSDYSKYLDERRAKDFVQWLMNT
modifications: bridge 16-20; also: ring between positions 16 and 20, kind not given here
B35: glucagon derivative of SEQ ID NO: 29 (peptide)
peptide: Y[Aib]QGTFTSDYSKCLDERRAKDFVQWLMNT
modifications: bridge 16-20; also: ring between positions 16 and 20, kind not given here
B36: glucagon derivative of SEQ ID NO: 34 (peptide)
peptide: W[Aib]QGTFTSDYSKYCDERRAKEFVQWLMNT
modifications: bridge 16-20; also: ring between positions 16 and 20, kind not given here
B37: glucagon derivative of SEQ ID NO: 2 (peptide)
peptide: HSQGTFTSDYSKYLDCDRAQDFVQWLMNT
B38: glucagon derivative of SEQ ID NO: 24 (peptide)
peptide: Y[Aib]QGTFTSDYSKCLDEKRAKEFVQWLMNT
modifications: bridge 16-20; also: ring between positions 16 and 20, kind not given here

Positions of bridges follow the written chain, without caps; N, C: chain ends. Non-standard residues stand in square brackets, D forms with d. No end group written: not given here. Aib = CC(C)(N)C(=O)O

Chain of human glucagon receptor (P47871 26-477): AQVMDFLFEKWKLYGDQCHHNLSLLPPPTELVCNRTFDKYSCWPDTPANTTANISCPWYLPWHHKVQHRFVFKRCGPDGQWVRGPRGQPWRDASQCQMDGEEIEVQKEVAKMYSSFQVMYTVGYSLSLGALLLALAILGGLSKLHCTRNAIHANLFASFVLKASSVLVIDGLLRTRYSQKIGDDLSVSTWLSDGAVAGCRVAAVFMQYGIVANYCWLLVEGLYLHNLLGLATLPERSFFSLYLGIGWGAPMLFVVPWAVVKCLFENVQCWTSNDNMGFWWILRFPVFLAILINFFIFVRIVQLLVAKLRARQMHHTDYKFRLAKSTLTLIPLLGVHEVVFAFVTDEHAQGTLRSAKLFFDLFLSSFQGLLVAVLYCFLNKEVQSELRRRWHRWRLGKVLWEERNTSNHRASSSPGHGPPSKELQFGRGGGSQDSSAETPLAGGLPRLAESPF

The experiment has as its target human glucagon receptor (human, UniProt P47871 26-477). Description: cell-based or functional assay.
Regarding B1, the “In vitro Activity (Relative Activity of SEQ ID NO: 1, %), from cAMP EC50” value amounted to 40.8%.
Turning to B2, the “In vitro Activity (Relative Activity of SEQ ID NO: 1, %), from cAMP EC50” value is 5.2%.
For B3 the value was 1.6%; for B4, 4.6%.
With B5, the “In vitro Activity (Relative Activity of SEQ ID NO: 1, %), from cAMP EC50” value stood at 23.2%.
B6: the “In vitro Activity (Relative Activity of SEQ ID NO: 1, %), from cAMP EC50” value came to 1%.
In the case of B7, the “In vitro Activity (Relative Activity of SEQ ID NO: 1, %), from cAMP EC50” value amounted to 6.1%.
Take B8: the “In vitro Activity (Relative Activity of SEQ ID NO: 1, %), from cAMP EC50” value was determined as 4.2%.
In the case of B9 it was 9.9%; in that of B10, 56.3%.
In the case of B11, the “In vitro Activity (Relative Activity of SEQ ID NO: 1, %), from cAMP EC50” value worked out at 75.4%.
As to B12, the “In vitro Activity (Relative Activity of SEQ ID NO: 1, %), from cAMP EC50” value is 46.9%.
For the molecule B13, the “In vitro Activity (Relative Activity of SEQ ID NO: 1, %), from cAMP EC50” value was less than 0.1%.
B14: the “In vitro Activity (Relative Activity of SEQ ID NO: 1, %), from cAMP EC50” value was determined as 6.3%.
With B15, the “In vitro Activity (Relative Activity of SEQ ID NO: 1, %), from cAMP EC50” value is 167%.
In the case of B16 it was 108%; in that of B17, 0.3%; in that of B18, 18.1%.
For B19 the value was 0.7%.
For the molecule B20, the “In vitro Activity (Relative Activity of SEQ ID NO: 1, %), from cAMP EC50” value is 93.6%.
Regarding B21, the “In vitro Activity (Relative Activity of SEQ ID NO: 1, %), from cAMP EC50” value was determined as 57.8%.
In the case of B22, the “In vitro Activity (Relative Activity of SEQ ID NO: 1, %), from cAMP EC50” value was less than 0.1%.
Turning to B23, the “In vitro Activity (Relative Activity of SEQ ID NO: 1, %), from cAMP EC50” value was 76.8%.
For B24, the “In vitro Activity (Relative Activity of SEQ ID NO: 1, %), from cAMP EC50” value is less than 0.1%.
Regarding B25, the “In vitro Activity (Relative Activity of SEQ ID NO: 1, %), from cAMP EC50” value amounted to 148%.
For B26 the value was 12.1%; for B27, 3.7%; for B28, 1.1%.
On to B29, for which the “In vitro Activity (Relative Activity of SEQ ID NO: 1, %), from cAMP EC50” value is 300%.
B30: the “In vitro Activity (Relative Activity of SEQ ID NO: 1, %), from cAMP EC50” value amounted to 17.7%.
Turning to B31, the “In vitro Activity (Relative Activity of SEQ ID NO: 1, %), from cAMP EC50” value came to 37.9%.
B32: the “In vitro Activity (Relative Activity of SEQ ID NO: 1, %), from cAMP EC50” value was less than 0.1%.
In the case of B33, the “In vitro Activity (Relative Activity of SEQ ID NO: 1, %), from cAMP EC50” value came to 226%.
Take B34: the “In vitro Activity (Relative Activity of SEQ ID NO: 1, %), from cAMP EC50” value is 45.2%.
Regarding B35, the “In vitro Activity (Relative Activity of SEQ ID NO: 1, %), from cAMP EC50” value is 61.3%.
Consider B36, for which the “In vitro Activity (Relative Activity of SEQ ID NO: 1, %), from cAMP EC50” value worked out at 0.2%.
For B37 the value was 0.6%; for B38, 58%.
